# Results from PMC12731043.
# Biological target: thrombin (factor IIa)
substance,measurement,value
"cysteine-rich anticoagulant protein (CRA), recombinant, mature form with C-terminal His-Tag (natural protein)","thrombin time (TT), clotting time of control plasma, preparation CRA P1 at 1 µM and 5 µM (21.8 s to 66.8 s; control without protein 14.3 s and 11.7 s)",66.8 s
same,"thrombin time (TT), clotting time of control plasma, preparation CRA P2 at 1 µM and 5 µM (16.6 s to 30.7 s; control without protein 14.3 s and 11.7 s)",30.7 s
same,"thrombin time (TT), clotting time of control plasma, preparation CRA P3 at 1 µM and 5 µM (20.1 s to 43.3 s; control without protein 14.3 s and 11.7 s)",43.3 s
